The target in the assay is CCR5 chemokine receptor (human) (UniProt P51681). Briefly: cell-based or functional assay.
UniProt P51681, sequence (P51681 whole entry): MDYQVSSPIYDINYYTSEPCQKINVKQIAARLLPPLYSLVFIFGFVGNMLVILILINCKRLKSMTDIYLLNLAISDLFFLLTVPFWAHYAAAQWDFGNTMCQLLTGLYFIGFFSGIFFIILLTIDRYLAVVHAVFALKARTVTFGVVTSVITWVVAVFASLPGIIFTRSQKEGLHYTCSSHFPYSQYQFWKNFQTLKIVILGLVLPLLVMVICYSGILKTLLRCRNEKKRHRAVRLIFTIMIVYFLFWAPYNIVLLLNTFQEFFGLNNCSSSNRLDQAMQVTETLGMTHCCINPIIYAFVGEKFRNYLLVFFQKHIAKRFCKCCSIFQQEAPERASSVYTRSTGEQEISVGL

With “n-nonanoyl-RANTES (2-68) (from UniProt P13501 25-91) (ligand)”, the potency at preventing infection of PBMC with R5 HIV-1 SF162, relative to AOP-RANTES came out at 3 fold.

In the case of “aminooxypentane-RANTES (2-68) (from UniProt P13501 25-91) (ligand)”, the inhibition of replication of dual-tropic HIV-1 89.6 in vitro (p24 ELISA) stood at 50% and the inhibition of replication of primary dual-tropic HIV-1 isolates from patients in vitro (p24 ELISA) was in the range of 80 to 90%.

For the origin of these results see patent US6942852.
